The labels stand for the following.
B1: HDV Ribozyme (parent)
chain: GGCCGGCAUGGUCCCAGCCUCCUCGCUGGCGCCGGCUGGGCAACAUUCCGAGGGGACCGUCCCCUCGGUAAUGGCGAAUGGGACCCA

The series covers variants of B1. Briefly: self-cleavage, relative activity (ratio to wild type); higher = more cleavage; co-transcriptional.
Regarding GGCCGGCAUGGUCCCAGCCUCCUCGCUGGCGCCGGCUGGGCAACAUUCCGAGGCGACCGUCCCCUCGGUAAUGGGGAAUGGGACCCA, the self-cleavage amounted to 0.151.

Regarding GGCCGGCAUGGUCCCAGCCUCCUCGCUGGCGCCGGCUGGGCAACAUUCCGAGGCGACCGUCCCCUCGGUAAUGGUGAAUGGGACCCA, the self-cleavage was 0.358. For GGCCGGCAUGGUCCCAGCCUCCUCGCUGGCGCCGGCUGGGCAACAUUCCGAGGCGACCGUCCCCUCGGUAAUGGAGAAUGGGACCCA the value was 0.138; for GGCCGGCAUGGUCCCAGCCUCCUCGCUGGCGCCGGCUGGGCAACAUUCCGAGGAGACCGUCCCCUUGGUAAUGGCGAAUGGGACCCA, 0.933. For GGCCGGCAUGGUCCCAGCCUCCUCGCUGGCGCCGGCUGGGCAACAUUCCGAGGAGACCGUCCCCUAGGUAAUGGCGAAUGGGACCCA the value was 0.634. With GGCCGGCAUGGUCCCAGCCUCCUCGCUGGCGCCGGCUGGGCAACAUUCCGAGGAGACCGUCCCCUGGGUAAUGGCGAAUGGGACCCA the figure was 0.821; with GGCCGGCAUGGUCCCAGCCUCCUCGCUGGCGCCGGCUGGGCAACAUUCCGAGGAGACCGUCCCCACGGUAAUGGCGAAUGGGACCCA, 0.267; with GGCCGGCAUGGUCCCAGCCUCCUCGCUGGCGCCGGCUGGGCAACAUUCCGAGGAGACCGUCCCCGCGGUAAUGGCGAAUGGGACCCA, 0.466. As to GGCCGGCAUGGUCCCAGCCUCCUCGCUGGCGCCGGCUGGGCAACAUUCCGAGGCGACCGUCCUCUCGGUAAUGGCGAAUGGGACCCA, the self-cleavage was 0.774. As for GGCCGGCAUGGUCCCAGCCUCCUCGCUGGCGCCGGCUGGGCAACAUUCCGAGGCGACCGUCCGCUCGGUAAUGGCGAAUGGGACCCA, the self-cleavage is 0.831. For GGCCGGCAUGGUCCCAGCCUCCUCGCUGGCGCCGGCUGGGCAACAUUCCGAGGAGACCGUCCCCUCGGUAAAGGCGAAUGGGACCCA the value was 0.707; for GGCCGGCAUGGUCCCAGCCUCCUCGCUGGCGCCGGCUGGGCAACAUUCCGAGGAGACCGUCCCCUCGGUAAUUGCGAAUGGGACCCA, 0.211; for GGCCGGCAUGGUCCCAGCCUCCUCGCUGGCGCCGGCUGGGCAACAUUCCGAGGAGACCGUCCCCUCGGUAAUAGCGAAUGGGACCCA, 0.394.

As to GGCCGGCAUGGUCCCAGCCUCCUCGCUGGCGCCGGCUGGGCAACAUUCCGAGGAGACCGUCCCCUCGGUAAUCGCGAAUGGGACCCA, the self-cleavage stood at 0.527.

As to GGCCGGCAUGGUCCCAGCCUCCUCGCUGGCGCCGGCUGGGCAACAUUCCGAGGCGACCGUCCCCUCGGUAUUGGCGAAUGGGACCCA, the self-cleavage is 0.731. With GGCCGGCAUGGUCCCAGCCUCCUCGCUGGCGCCGGCUGGGCAACAUUCCGAGGAGACCGUCCCCUCGGUAAUGGCGAAUGGAACCCA the figure was 0.208; with GGCCGGCAUGGUCCCAGCCUCCUCGCUGGCGCCGGCUGGGCAACAUUCCGAGGAGACCGUCCCCUCGGUAAUGGCGAAUGGCACCCA, 0.282. Turning to GGCCGGCAUGGUCCCAGCCUCCUCGCUGGCGCCGGCUGGGCAACAUUCCGAGGAGACCGUCCCCUCCGUAAUGGCGAAUGGGACCCA, the self-cleavage worked out at 0.591. For GGCCGGCAUGGUCCCAGCCUCCUCGCUGGCGCCGGCUGGGCAACAUUCCGAGGCGUCCGUCCCCUCGGUAAUGGCGAAUGGGACCCA the value was 1.06; for GGCCGGCAUGGUCCCAGCCUCCUCGCUGGCGCCGGCUGGGCAACAUUCCGAGGCGCCCGUCCCCUCGGUAAUGGCGAAUGGGACCCA, 0.864; for GGCCGGCAUGGUCCCAGCCUCCUCGCUGGCGCCGGCUGGGCAACAUUCCGAGGAGACCGUCCCUUCGGUAAUGGCGAAUGGGACCCA, 0.696. Regarding GGCCGGCAUGGUCCCAGCCUCCUCGCUGGCGCCGGCUGGGCAACAUUCCGAGGCGACCGUCCCCUCGGUAAUGGCGAAUGGGGCCCA, the self-cleavage amounted to 0.905. Take GGCCGGCAUGGUCCCAGCCUCCUCGCUGGCGCCGGCUGGGCAACAUUCCGAGGCGACCGUCCCCUCGGUCAUGGCGAAUGGGACCCA: the self-cleavage was determined as 0.755.

GGCCGGCAUGGUCCCAGCCUCCUCGCUGGCGCCGGCUGGGCAACAUUCCGAGGCGACCGUCCCCUCGGUGAUGGCGAAUGGGACCCA: the self-cleavage was 1.07.

For GGCCGGCAUGGUCCCAGCCUCCUCGCUGGCGCCGGCUGGGCAACAUUCCGAGGCGACCGUCCCCUCGGUUAUGGCGAAUGGGACCCA, the self-cleavage turned out to be 0.81. For GGCCGGCAUGGUCCCAGCCUCCUCGCUGGCGCCGGCUGGGCAACAUUCCGAGGAGACCGUCCCCUCGGUAAUGGCGAAUUGGACCCA the value was 0.214; for GGCCGGCAUGGUCCCAGCCUCCUCGCUGGCGCCGGCUGGGCAACAUUCCGAGGAGACCGUCCCCUCGGUAAUGGCGAAUCGGACCCA, 0.0831. Take GGCCGGCAUGGUCCCAGCCUCCUCGCUGGCGCCGGCUGGGCAACAUUCCGAGGAGACCGUCCCCUCGGUAAUGGCGAAAGGGACCCA: the self-cleavage was 0.465. As for GGCCGGCAUGGUCCCAGCCUCCUCGCUGGCGCCGGCUGGGCAACAUUCCGAGGAGACCUUCCCCUCGGUAAUGGCGAAUGGGACCCA, the self-cleavage came to 1.06. For GGCCGGCAUGGUCCCAGCCUCCUCGCUGGCGCCGGCUGGGCAACAUUCCGAGGAGACCGUCCCCUCGGUAAUGGCGAAUGGGAGCCA the value was 0.462. With GGCCGGCAUGGUCCCAGCCUCCUCGCUGGCGCCGGCUGGGCAACAUUCCGAGGAGACCGUCCCCUCGGUAAUGGCGAAUGGGAACCA the figure was 0.496; with GGCCGGCAUGGUCCCAGCCUCCUCGCUGGCGCCGGCUGGGCAACAUUCCGAGGAGACCGUCCCCUCGGUAAUGGCGAAUGGGAUCCA, 0.563; with GGCCGGCAUGGUCCCAGCCUCCUCGCUGGCGCCGGCUGGGCAACAUUCCGAGGAGACCGUCCCCUCGGUAAUGGCGAAUGGGACCUA, 0.992. Consider GGCCGGCAUGGUCCCAGCCUCCUCGCUGGCGCCGGCUGGGCAACAUUCCGAGGAGACCGUCCCCUCGGUAAUGGCGAAUGGGACCGA, for which the self-cleavage was found to be 1.07. With GGCCGGCAUGGUCCCAGCCUCCUCGCUGGCGCCGGCUGGGCAACAUUCCGAGGAGACCGUCCCCUCGGUAAUGGCGAAUGGGACCAA the figure was 0.988; with GGCCGGCAUGGUCCCAGCCUCCUCGCUGGCGCCGGCUGGGCAACAUUCCGAGGCGACCGUACCCUCGGUAAUGGCGAAUGGGACCCA, 0.926. As to GGCCGGCAUGGUCCCAGCCUCCUCGCUGGCGCCGGCUGGGCAACAUUCCGAGGCGACCGUUCCCUCGGUAAUGGCGAAUGGGACCCA, the self-cleavage was determined as 1.01.

For the variant GGCCGGCAUGGUCCCAGCCUCCUCGCUGGCGCCGGCUGGGCAACAUUCCGAGGCGAACGUCCCCUCGGUAAUGGCGAAUGGGACCCA, the self-cleavage came to 0.937. For GGCCGGCAUGGUCCCAGCCUCCUCGCUGGCGCCGGCUGGGCAACAUUCCGAGGCGAGCGUCCCCUCGGUAAUGGCGAAUGGGACCCA the value was 1.05.

For GGCCGGCAUGGUCCCAGCCUCCUCGCUGGCGCCGGCUGGGCAACAUUCCGAGGAGACCGUCCCCUCGGUAAUGGCGAAUGGGACGCA, the self-cleavage was determined as 0.892.

Consider GGCCGGCAUGGUCCCAGCCUCCUCGCUGGCGCCGGCUGGGCAACAUUCCGAGGCGACGGUCCCCUCGGUAAUGGCGAAUGGGACCCA, for which the self-cleavage is 1.04.

For GGCCGGCAUGGUCCCAGCCUCCUCGCUGGCGCCGGCUGGGCAACAUUCCGAGGCGACCGUCCCCUCGGUAAUGGCGAAUGGGACCCU, the self-cleavage is 0.901. For GGCCGGCAUGGUCCCAGCCUCCUCGCUGGCGCCGGCUGGGCAACAUUCCGAGGAGACCGUCCCCUCGGGAAUGGCGAAUGGGACCCA the value was 0.882; for GGCCGGCAUGGUCCCAGCCUCCUCGCUGGCGCCGGCUGGGCAACAUUCCGAGGCGACCGUCCCCUCGGUAAUGGCGCAUGGGACCCA, 0.426; for GGCCGGCAUGGUCCCAGCCUCCUCGCUGGCGCCGGCUGGGCAACAUUCCGAGGCGACCGUCCCCUCGGUAAUGGCGUAUGGGACCCA, 0.695.

Regarding GGCCGGCAUGGUCCCAGCCUCCUCGCUGGCGCCGGCUGGGCAACAUUCCGAGGAGACCGUCCCCUCGGUAAUGGCAAAUGGGACCCA, the self-cleavage is 0.923. With GGCCGGCAUGGUCCCAGCCUCCUCGCUGGCGCCGGCUGGGCAACAUUCCGAGGAGACCGUCCCCUCGGUAAUGGCUAAUGGGACCCA the figure was 0.799; with GGCCGGCAUGGUCCCAGCCUCCUCGCUGGCGCCGGCUGGGCAACAUUCCGAGGCGACCGUCCCUUCGGUAAUGGCGAAUGGGACCCA, 0.82; with GGCCGGCAUGGUCCCAGCCUCCUCGCUGGCGCCGGCUGGGCAACAUUCCGAGGCGACCGUCCCCUAGGUAAUGGCGAAUGGGACCCA, 0.814. With GGCCGGCAUGGUCCCAGCCUCCUCGCUGGCGCCGGCUGGGCAACAUUCCGAGGCGACCGUCCCCUUGGUAAUGGCGAAUGGGACCCA, the self-cleavage was 0.917. Take GGCCGGCAUGGUCCCAGCCUCCUCGCUGGCGCCGGCUGGGCAACAUUCCGAGGCGACCGUCCCCUGGGUAAUGGCGAAUGGGACCCA: the self-cleavage turned out to be 0.591. As for GGCCGGCAUGGUCCCAGCCUCCUCGCUGGCGCCGGCUGGGCAACAUUCCGAGGAGACCGUCCCCUCGGUAAUGGCGAAUGAGACCCA, the self-cleavage is 0.511.

For GGCCGGCAUGGUCCCAGCCUCCUCGCUGGCGCCGGCUGGGCAACAUUCCGAGGAGACCGUCCCCUCGGUAAUGGCGAAUGCGACCCA, the self-cleavage was 0.26. For GGCCGGCAUGGUCCCAGCCUCCUCGCUGGCGCCGGCUGGGCAACAUUCCGAGGAGACCGUCCCCUCGGUAAUGGAGAAUGGGACCCA the value was 0.211; for GGCCGGCAUGGUCCCAGCCUCCUCGCUGGCGCCGGCUGGGCAACAUUCCGAGGAGACCGUCCCCUCGGUAAUGGUGAAUGGGACCCA, 0.164. For GGCCGGCAUGGUCCCAGCCUCCUCGCUGGCGCCGGCUGGGCAACAUUCCGAGGAGACCGUCCCCUCGGUAAUGGGGAAUGGGACCCA the value was 0.185. For GGCCGGCAUGGUCCCAGCCUCCUCGCUGGCGCCGGCUGGGCAACAUUCCGAGGAGACCGUCCCCUCGUUAAUGGCGAAUGGGACCCA the value was 0.641; for GGCCGGCAUGGUCCCAGCCUCCUCGCUGGCGCCGGCUGGGCAACAUUCCGAGGAGACCGUCCCCUCGAUAAUGGCGAAUGGGACCCA, 0.895. As to GGCCGGCAUGGUCCCAGCCUCCUCGCUGGCGCCGGCUGGGCAACAUUCCGAGGAAACCGUCCCCUCGGUAAUGGCGAAUGGGACCCA, the self-cleavage came to 1.29. For GGCCGGCAUGGUCCCAGCCUCCUCGCUGGCGCCGGCUGGGCAACAUUCCGAGGAUACCGUCCCCUCGGUAAUGGCGAAUGGGACCCA the value was 0.993; for GGCCGGCAUGGUCCCAGCCUCCUCGCUGGCGCCGGCUGGGCAACAUUCCGAGGCGACCGUCUCCUCGGUAAUGGCGAAUGGGACCCA, 0.746; for GGCCGGCAUGGUCCCAGCCUCCUCGCUGGCGCCGGCUGGGCAACAUUCCGAGGAGACCGUCCCCUCGGUAAUGUCGAAUGGGACCCA, 0.562. With GGCCGGCAUGGUCCCAGCCUCCUCGCUGGCGCCGGCUGGGCAACAUUCCGAGGAGACCGUCCCCUCGGUAAUGACGAAUGGGACCCA the figure was 0.445. Consider GGCCGGCAUGGUCCCAGCCUCCUCGCUGGCGCCGGCUGGGCAACAUUCCGAGGAGACCGUCCCCUCGGUAAUGCCGAAUGGGACCCA, for which the self-cleavage came out at 0.194.

(Values after the RNAGym collection of RNA variant scans (doi:10.7554/elife.80360).)
